Here are results for one molecule from patent publication US20180147257A1 (Stanford University, published 2018).

This test concerns the target T1, PDL1 displayed on yeast cells (UniProt Q9NZQ7 19-238, limits assumed).
T1 construct: Control for the yeast display staining; also called closest CD277 structural homologue
The test is described as follows: FACS staining of yeast displaying PDL1 with purified LTβR-IgG1 fusion protein.

T1 sequence (Q9NZQ7 19-238 limits assumed): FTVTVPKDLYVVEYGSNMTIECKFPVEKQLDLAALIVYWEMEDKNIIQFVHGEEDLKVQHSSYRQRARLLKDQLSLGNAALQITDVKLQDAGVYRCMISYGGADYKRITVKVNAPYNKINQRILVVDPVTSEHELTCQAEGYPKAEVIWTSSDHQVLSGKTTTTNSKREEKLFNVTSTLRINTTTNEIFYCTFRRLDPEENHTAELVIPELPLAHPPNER

B1: LTβR-IgG1 fusion protein (Fc fusion, UniProt P36941 31-227, looked up)
chain: QAVPPYASENQTCRDQEKEYYEPQHRICCSRCPPGTYVSAKCSRIRDTVCATCAENSYNEHWNYLTICQLCRPCDPVMGLEEIAPCTSKRKTQCRCQPGMFCAAWALECTHCELLSDCPPGTEAELKDEVGKGNNHCVPCKAGHFQNTSSPSARCQPHTRCENQGLVEAAPGTAQSDTTCKNPLEPLPPEMSGTMLM
notes: Purified fusion protein; also called LTBR-IgG1 fusion protein; not shown: IgG1 part of the fusion
For the molecule B1, the binding result is on record as “no binding”.
